Here are results for 17 sequences from the DeepSol protein solubility set.

A short description of the data set: soluble on expression in E. coli; label from the status in PepcDB or PDB records.
“MGSDKIHHHHHHMTIVYLYTALCTVGGADRSIIQKANYLADEMHQDVFIITDSQKERPPVFPISPRIRHIDIGIDFDRQYHHNLLVRGYYYFTLMHLYRKKLEYWLKTLKPDIVISTLGRELDFLTQLDDGSVKIGESHIAKPYTRNLHLMEQRGFPYKQIARHWRKKQEEAVKKLDALVVLTQHDADNWKEVKKACVIPNFLPFSPEKGSSCLEKRIISIGRYSEQKGYDRLIEAWIKVNRKHPDWHIRIYGEGQDRNSLQELIEKHHIENSFSLCPPTKSIQEKYLESSIYVMSSRFEGLPMALLEAMACGVPCISFDCPYGPAEIITPEEDGILVKNGNTDELADAICRLIEDTDKRIRMGKQAQKNIQRYSREEVMKLWDELFNTLTTARP”: the “soluble on expression in E. coli” value was “not soluble”. Under “MTNATIAPTTTAAPVTKSVDAPTADENTPLFSPSLISPDVLAVLPADYTIRPLCRSDYKRGYLDVLRVLTTVGDINEEQWNSRYEWIRARSDEYYLLVVCDGEGRIVGTGSLVVERKFIHSLGMVGHIEDIAVEKGQQGKKLGLRIIQALDYVAEKVGCYKTILDCSEANEGFYIKCGFKRAGLEMAHYY” stands “soluble”; under “ANSKLTSDFDNPRWIGRHKHMFNFLDVNHNGKISLDEMVYKASDIVINNLGATPEQAKRHKDAVEAFFGGAGMKYGVETDWPAYIEGWKKLATDELEKYAKNEPTLIRIWGDALFDIVDKDQNGAITLDEWKAYTKAAGIIQSSEDCEETFRVCDIDESGQLDVDEMTRQHLGFWYTMDPACEKLYGGAVP”, “soluble”. Turning to “ERRQGIAGVKGNQLQLMTESDDVMQALIRDIQLARHNIEMVFYIWQPGGMADQVAESLMAAARRGIHCRLMLDSAGSVAFFRSPWPELMRNAGIEVVEALKVNLMRVFLRRMDLRQHRKMIMIDNYIAYTGSMNMVDPRYFKQDAGVGQWIDLMARMEGPIATAMGIIYSCDWEIETGKRILPPPPDVNIMPFEQASGHTIHTIASGPGFPEDLIHQA”, the “soluble on expression in E. coli” value is reported as “not soluble”. For “MIMALSSFGKILTVLDLFSVHRPIINVDIICEELALSKPTGYRYLKELVSSEILQRISGTSGDYTLGPKIAVMDYISRTTDPIVQMSSPFMRDIAERTELCCLLTHLNRDYCIDVHHEVFRNADLLSYGRGCPRPVYMGSSPKVIMAHLPKRQIQDYYQRFSRQLAEVDFAHDEESFLIRMKKIKKDGYYISHGELNPDVTGLSVPIKFSHTKESPMALTLVASKNRFEFINIDKLIEILQANVIHIEQKSLALIQIEKSLH”, the “soluble on expression in E. coli” value is given as “not soluble”. Then “MTSIIKLKVFSGAKDEGPLCYLLQVDGDYILLDCGWDERFGLQYFEELKPFIPKISAVLISHPDPLHLGGLPYLVSKCGLTAPVYATVPVYKMGQMFIYDMVYSHLDVEEFEHYTLDDVDTAFEKVEQVKYNQTVVLKGDSGVHFTALPAGHMLGGSIWRICRVTGEDIVYCVDFNHKKERHLNGCSFDNFNRPHLLITGAHHISLPQMRRKDRDEQLVTKILRTVRQKGDCMIVIDTAGRVLELAHLLDQLWSNADAGLSTYNLVMMSHVASSVVQFAKSQLEWMNEKLFKYDSSSARYNPFTLKHVTLCHSHQELMRVRSPKVVLCSSQDMESGFSRELFLDWCSDPRNGVILTARPASFTLAAKLVNMAERANDGVLKHEDRLISLVVKKRVALEGEELLEYKRRKAERDAEETRLRMERARRQAQANESDDSDDDDIAAPIVPRHSEKDFRSFDGSENDAHTFDIMAKWDNQQKASFFKTTKKSFPMFPYIEEKVKWDDYGEVIKPEDYTVISKIDLRKGQNKDEPVVVKKREEEEEVYNPNDHVEEMPTKCVEFKNRVEVSCRIEFIEYEGISDGESTKKLLAGLLPRQIIVVHGSRDDTRDLVAYFADSGFDTTMLKAPEAGALVDASVESFIYQVALSDALLADIQFKEVSEGNSLAWIDARVMEKEAIDNMLAVGTSNLMIDDKNREEDVNDQEENGATEGEGNAEPMEIGENGSQESLAISESGKEVENGHTNDSRTKKGTKGKIRGNLILDPLPKRLIPIHQAVFVNDPKLSDFKNLLTDKGYKAEFLSGTLLINGGNCSIRRNDTGVFQMEGAFTKDYYKLRRLFYDQFAVL”, with “not soluble”; and “MGDTDRKLFVLDTNILLHEPFAIFSFQEHDVVIPMTVLEELDRIKDSKRDVARDARVAIRALEDLFKDATPDEISEGIPVSKEKPDQGSISILADFELQETVKAFADKAGDNRILNAVLYLQNKRAPREVVLITKDINMRLRAKGAGVRFVEDYRTDQLIDDIQYLTKGFQQREGDFWSGIDEVESYALGGKTYHKLSREPFDPTFINQYVIDEDSDFAGRVETINEDKLTLLDLSRERMMHRRAWDITPKNIYQAMALDALLDPDIDLVILTGAAGSGKTLLAMAAALEQTIEKGMFDKIIVTRNTPDIGESIGFLPGSEEEKMMPWLAAVTDTLEALHKHDHCTEGSLKYICDKANIQFKSINFMRGRSIQNAFVLLDECQNLTASQIKTIITRCGEGTKIVCSGNLAQIDSHYLTPVTSGLTYMVERFKNFEGSANIHLNGVVRSRLAEFAEENL”, with “soluble”; and “SAILALFFHMYSHNISSLSMKAQPERMHVLVLSSWRSGSSFVGQLFGQHPDVFYLMEPAWHVWMTFKQSTAWMLHMAVRDLIRAVFLCDMSVFDAYMEPGPRRQSSLFQWENSRALCSAPACDIIPQDEIIPRAHCRLLCSQQPFEVVEKACRSYSHVVLKEVRFFNLQSLYPLLKDPSLNLHIVHLVRDPRAVFRSRERTKGDLMIDSRIVMGQHEQKLKKEDQPYYVMQVICQSQLEIYKTIQSLPKALQERYLLVRYEDLARAPVAQTSRMYEFVGLEFLPHLQTWVHNITRGKGMGDHAFHTNARDALNVSQAWRWSLPYEKVSRLQKACGDAMNLLGYRHVRSEQEQRNLLLDLLSTWTVPEQIH”, with “not soluble”. For “QIVDATEALMHDQNSQRITLNMVNSLALHWWIPRMPRLQTYAPQLDVRLSNLSGRFNLEQEGVDAALVHGNPEEWQDYYCEKLSEDELVLVCSPDLIDHSNPVNLSDILKTYPLIEVTNERRKHDWQVWSDATGVARPKNKKPITFNMSIQAVQATTRRLGVLVTHRLFVKDDIKYGQLIELGEPVINPNQQLYFVCPPHKLKQESFHLLRSWLKQEFA”, the “soluble on expression in E. coli” value was “soluble”. Then “MGSDKIHHHHHHMNADDAYKPIQRATLSEASWRILRIAQSVELRHPVSHETALAIWGVELPADSDCSVVSLRSSQGGYAGTDVDYGWSGESPAFGHSEHSIRLGQDFPDSDFQYFPDSQAVSRNQIPGLRQSASQPSQFPQSPAKLHTVAQSPARRGRVKKSTSVSADVTVHVWKGLSARHVREVAGVPVLMPVPAWSLAAGRWGIQDIVMVAESLIRHRFATRKGLIEFVKTESVPYRSKCLDALALVQSGSDSPKETEMRLTLVCYGLPIMQPNCVVPGVNFANGAAVTLDLVDAEHRFGLDYQGDHHRTDRAQYRRDQNKLSRLAAAGWTVFSVTQLDLSDELHRAAFAMNVAHALSSIVGRPIGVTTPLPWRKVVLRYRKARKLRLLD”, with “not soluble”; and “MGSDKIHHHHHHMTKEQNSTENLDFQSPSDDTNLEGDFTADIVALAAKVEVQIQKIAERQRQISAKVQIPQPVEKIWKVLTDYEALPDFLPNLAKSRLIEHPNGGIRLEQVGSQRLLNFNFSARVVLDLEECFPREINFRMVEGDFKGFSGSWCLEPYSLGEYIGTNLCYTIQVWPKLTMPVGIIENRLSKDLRLNLVAIHQRVEELANKQPYI”, with “not soluble”. Under “MIERYSRPEMSAIWTDENRFQAWLEVEILACEAWAELGVIPKEDVKVMRENASFDINRILEIEKDTRHDVVAFTRAVSESLGEERKWVHYGLTSTDVVDTALSYLLKQANDILLKDLERFVDIIKEKAKEHKYTVMMGRTHGVHAEPTTFGLKLALWHEEMKRNLERFKQAKAGIEVGKISGAVGTYANIDPFVEQYVCEKLGLKAAPISTQTLQRDRHADYMATLALIATSIEKFAVEIRGLQKSETREVEEFFAKGQKGSSAMPHKRNPIGSENMTGMARVIRGYMMTAYENVPLWHERDISHSSAERIILPDATIALNYMLNRFSNIVKNLTVFPENMKRNMDRTLGLIYSQRVLLALIDTGLTREEAYDTVQPKAMEAWEKQVPFRELVEAEEKITSRLSPEKIADCFDYNYHLKNVDLIFERLGLA” stands “soluble”; under “MSLAREPRNIGASVRARLLDRARAERSDFQILLTRYALERLLYRLSASPHRDRFILKGAMLFVTWIADPFRPTRDLDLLGHGDRDTEAIAETFRAICAQPVVDDGVTFDVAALMATPIREELEYGGVRVRTTATIAGARIPIQVDIGFGDAITPAAVEIDYPTLLDAPTPHLRAYPVETVVAEKFAALVTLGVANSRLKDFYDLWVISRTFELRRAALAEAIQRTFERRGTVLPSVVPVGLTDEFAETWAAQWRAFLERDRMAAAPDAFAVTVADLRLFLMPLVVGLKEERIWPPSGPWSPGAAIDEAEGHHHHHH”, “soluble”; under “MGSDKIHHHHHHSDEKYPMPTSIDQNSLSAEAKAGAIKLKWTVPADSNYYYVKVTYTLPEDGKKCMRLASVNSDTMLVDNLLHRYGDINFTLQPCNRAGEASQSCSIMAQALPALKQIKTDRNPITLSAKQLYTDDQESSEGPIANLVDGRNDTYFHMSWSSPTPFPHYIVVDLGEENALSTFLFSYVCRDNNNKDNPKEMDILGSNTFDGKNYDESQTTLLASLSNLPNTKAASYESDIIKAGASYRYLWFKVKSSTSGSNWIALAELGLSKVIVKTYDPETGETTIE”, “not soluble”.

For “MGSDKIHHHHHHMAKGSKGFIVSIMGPVVDVKFPEEELPDIYNALEVVNPQTGQKVVLEVEQLIGDGVVRTVAMDSTDGLTKGLEVVDTGAPITAPVGKEVLGRILNVIGEPVDEAGEIKAKERWPIHRPAPELVEQSTEIEILETGIKVIDLLAPFPKGGKIGFFGGAGVGKTVLVMELIRNIAIEHKGFSVFAGVGERTREGNELWLEMQESGVLGNTVLVFGQMNEPPGARFRVALTALTIAEYFRDVEGRDVLLFIDNIFRFVQAGSEVSALLGRMPSAVGYQPTLATDMGELQERITSTRRGSITSVQAIYVPADDITDPAPATTFAHLDATVVLSRRIAELGLYPAVDPLDSSSKILDPAIVGREHYEVARGVQEVLQRYKDLQDIIAILGVEELSPEDKLVVHRARRIQRFLSQPFHVAERFTGRPGRYVPIEETIRGFKEILDGKLDDVPEQAFLMAGNIDEVKERAKEMRS”, the “soluble on expression in E. coli” value is reported as “not soluble”.

For the sequence “MTTQAPTFTQPLQSVVVLEGSTATFEAHISGFPVPEVSWFRDGQVISTSTLPGVQISFSDGRAKLTIPAVTKANSGRYSLKATNGSGQATSTAELLVKAETAPPNFVQRLQSMTVRQGSQVRLQVRVTGIPTPVVKFYRDGAEIQSSLDFQISQEGDLYSLLIAEAYPEDSGTYSVNATNSVGRATSTAELLVQGETREEF”, the “soluble on expression in E. coli” value is “soluble”. “MAHHHHHHMTTLTHSRPRPLHLPLSPPHTRKNDGAAPAPAHTHPSHFLSVAITVTHTDFVTGTIMKSFFSNITSKLKTRRKPLAPCDCSDFIEAAPAQPSLTHLRGVVAARHFHGAPPPASDVENARRDFVVRSTVFDLQHRCGAGGRCTCAGAPACRFPQCFTMRPVTKGAEVLAERQVYEVEDAPTPEIRALVALAAEEKLEEVVKGIQHTVDAHLKAAARGRGLEARFIIDGSDGHEFTPATPKTGTGSIHAGANPLREDEDLREEITSLYLWRAALLVNLRRDEQAVSSLLNLAFAVEQKDRTRLYGAAAAWAVLNDMEIIYYRSLVKSCKPFDQAVHFATERPLLLARVFEATRGDDYHTDYCTHVVFSKEVTATVTRAQTAQMHGDFTEDPMRSLCLPLTMPYYRFRVDEEFWKRFYALLCMPPVPPPTQEEAKAQAIDPAAELGLTPNYILDAVGRSMMLHHLVTFADVRDKEIDTGVVVDRVKEMKLLDLQPHPSDYTPVLTTSEMHVAVTRMKELLVVVRSFEAKEQERLSGAAAAQRLQRAQSGNDAANPSAAPPAPSPIEK”: the “soluble on expression in E. coli” value was “not soluble”.
